According to PMC4027191 (Nucleic Acids Research, 2014):

T1: Recombinant His-tagged RECQL1 (human, UniProt P46063 1-649)
T1 sequence (looked up): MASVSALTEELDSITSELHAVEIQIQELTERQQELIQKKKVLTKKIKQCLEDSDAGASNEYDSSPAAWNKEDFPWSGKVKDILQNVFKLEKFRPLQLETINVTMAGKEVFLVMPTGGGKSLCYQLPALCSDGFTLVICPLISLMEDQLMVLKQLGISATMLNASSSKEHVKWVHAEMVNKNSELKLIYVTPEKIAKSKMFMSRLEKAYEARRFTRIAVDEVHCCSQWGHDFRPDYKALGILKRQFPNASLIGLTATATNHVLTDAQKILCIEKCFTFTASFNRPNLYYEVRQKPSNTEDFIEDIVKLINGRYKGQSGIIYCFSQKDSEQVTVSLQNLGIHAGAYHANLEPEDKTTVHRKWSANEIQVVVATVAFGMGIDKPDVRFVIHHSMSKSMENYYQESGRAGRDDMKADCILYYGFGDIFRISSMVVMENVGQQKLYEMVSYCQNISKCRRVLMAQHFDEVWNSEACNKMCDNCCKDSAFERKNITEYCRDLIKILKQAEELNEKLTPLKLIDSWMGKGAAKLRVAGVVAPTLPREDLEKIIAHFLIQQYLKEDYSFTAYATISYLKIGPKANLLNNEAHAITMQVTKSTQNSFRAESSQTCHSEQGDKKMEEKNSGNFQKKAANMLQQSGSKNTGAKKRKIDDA

B1: Recombinant histidine-tagged human TRF2 (natural protein, UniProt Q15554 1-542, looked up)
chain: MAAGAGTAGPASGPGVVRDPAASQPRKRPGREGGEGARRSDTMAGGGGSSDGSGRAAGRRASRSSGRARRGRHEPGLGGPAERGAGEARLEEAVNRWVLKFYFHEALRAFRGSRYGDFRQIRDIMQALLVRPLGKEHTVSRLLRVMQCLSRIEEGENLDCSFDMEAELTPLESAINVLEMIKTEFTLTEAVVESSRKLVKEAAVIICIKNKEFEKASKILKKHMSKDPTTQKLRNDLLNIIREKNLAHPVIQNFSYETFQQKMLRFLESHLDDAEPYLLTMAKKALKSESAASSTGKEDKQPAPGPVEKPPREPARQLRNPPTTIGMMTLKAAFKTLSGAQDSEAAFAKLDQKDLVLPTQALPASPALKNKRPRKDENESSAPADGEGGSELQPKNKRMTISRLVLEEDSQSTEPSAGLNSSQEAASAPPSKPTVLNQPLPGEKNPKVPKGKWNSSNGVEEKETWVEEDELFQVQAAPDEDSTTNITKKQKWTVEESEWVKAGVQKYGEGNWAAISKNYPFVNRTAVMIKDRWRTMKRLGMN
B2: DL1 (telomeric D-loop) (structured_DNA)
DNA 1: CACCATCCAGTTCTCTTTTGAGAACTGGATGGTGTTAGGGTTAGGGTTAGGGTTAGGGTTAACGCTC
DNA 2: TCAAGCTCGGTCTGCAGTCAGGATGATTGTGAGCGTTAACCCTAACCCTAACCCTAACCCTAATCTGCACTCGAGACTCACGTCCTGGTCACG
DNA 3: CGTGACCAGGACGTGAGTCTCGAGTGCAGACCTTTTTTTTTTTTTTTTTTTTTTTTTTTTTTTACAATCATCCTGACTGCAGACCGAGCTTGA
B3: DL4 (telomeric D-loop with two 8-oxoG) (structured_DNA)
DNA 1: B2 DNA 1
DNA 2: B2 DNA 2
DNA 3: B2 DNA 3
modifications: 8-oxo-dG at positions 39 and 57 of strand 1 (written as G)

Columns and labels:
[1] = biological target: T1, Recombinant His-tagged RECQL1; assay: cell-based or functional assay
TRF2 [2] = biological target: T2, TRF2 (Homo sapiens, UniProt Q15554 1-542); assay: EMSA; text gives ~100 nM, binds weakly; EMSA buffer, pH and temperature not given in the material
RECQL1 = RECQL1 (Homo sapiens, UniProt P46063 1-649); assay: EMSA; EMSA buffer, pH and temperature not given in the material
TRF1 [3] = biological target: T3, TRF1 (Homo sapiens, UniProt P54274 1-439); assay: EMSA; text gives ~50 nM; EMSA buffer, pH and temperature not given in the material
TRF2 [4] = biological target: T2, TRF2; assay: EMSA; EMSA buffer, pH and temperature not given in the material
TRF1 [5] = biological target: T3, TRF1; assay: as above

T3 sequence (P54274 whole entry): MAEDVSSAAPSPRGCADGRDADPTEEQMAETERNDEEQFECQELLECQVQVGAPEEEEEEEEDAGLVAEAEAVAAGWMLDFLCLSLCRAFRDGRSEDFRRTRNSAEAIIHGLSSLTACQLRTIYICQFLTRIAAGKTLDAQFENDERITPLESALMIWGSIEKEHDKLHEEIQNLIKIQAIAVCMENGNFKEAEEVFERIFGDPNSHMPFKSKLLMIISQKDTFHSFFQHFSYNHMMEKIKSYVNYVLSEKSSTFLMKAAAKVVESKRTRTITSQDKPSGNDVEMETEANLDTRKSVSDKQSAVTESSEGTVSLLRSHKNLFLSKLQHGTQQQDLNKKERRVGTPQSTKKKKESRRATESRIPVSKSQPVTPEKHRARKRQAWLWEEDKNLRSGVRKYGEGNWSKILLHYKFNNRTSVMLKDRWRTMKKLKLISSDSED

Binder	helicase activity of RECQL1 left on the 8-oxoguanine telomeric D-loop DL4 with TRF2 at a molar ratio of 1:4 (RECQL1:TRF2) [1]	Kd (TRF2 [2])	Kd (RECQL1)	Kd (TRF1 [3])	Kd (TRF2 [4])	Kd (TRF1 [5])
B1	~40%					
B2		90 ± 12.5 nM	10 ± 2.5 nM	40 ± 5 nM		
B3			12.5 ± 5 nM		125 ± 10 nM	50 ± 10 nM
